From article PMC5039685 (Theranostics, 2016)

Molecular target: GST-Src (UniProt P12931 1-536)
Experiment: pull-down

B1: (His)6-tagged EB1 (natural protein, UniProt Q15691 1-268, looked up)
chain: MAVNVYSTSVTSDNLSRHDMLAWINESLQLNLTKIEQLCSGAAYCQFMDMLFPGSIALKKVKFQAKLEHEYIQNFKILQAGFKRMGVDKIIPVDKLVKGKFQDNFEFVQWFKKFFDANYDGKDYDPVAARQGQETAVAPSLVAPALNKPKKPLTSSSAAPQRPISTQRTAAAPKAGPGVVRKNPGVGNGDDEAAELMQQVNVLKLTVEDLEKERDFYFGKLRNIELICQENEGENDPVLQRIVDILYATDEGFVIPDEGGPQEEQEEY
**Q.** Does B1 bind?
**A.** binds
